Measurements published in article PMC5331223, “Differential regulation of the Epr3 receptor coordinates membrane-restricted rhizobial colonization of root nodule primordia”.

Molecular target: NIN (520-878) (Lotus japonicus, UniProt Q9S7B1 520-878)
Assay: EMSA; 25 mM Tris-HCl pH 8.0, 80 mM NaCl, 35 mM KCl, 5 mM MgCl2, 10% glycerol, 1 mM DTT, 0.1% Triton; 25 nM probe, 2 ul protein (ERN1 0.75 mg/ml, NIN 1.0 mg/ml stock); 30 min at 30 C (ERN1) or 37 C (NIN); gel in 0.5x TBE
Settings: protein: recombinant; tags: His-tag (pET30); label: 6-FAM at 5' of strand 1; blunt

Chain of NIN (520-878) (Q9S7B1 entry or part of it): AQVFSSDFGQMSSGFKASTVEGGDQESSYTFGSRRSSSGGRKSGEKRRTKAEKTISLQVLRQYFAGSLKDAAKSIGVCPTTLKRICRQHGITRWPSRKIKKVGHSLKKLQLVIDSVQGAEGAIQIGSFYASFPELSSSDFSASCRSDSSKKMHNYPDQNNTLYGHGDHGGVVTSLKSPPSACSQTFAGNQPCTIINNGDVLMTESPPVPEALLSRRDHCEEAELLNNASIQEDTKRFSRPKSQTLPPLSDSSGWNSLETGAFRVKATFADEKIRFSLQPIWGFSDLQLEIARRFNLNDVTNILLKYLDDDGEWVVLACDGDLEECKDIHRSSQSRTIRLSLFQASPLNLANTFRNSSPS

B1: Nin1 probe (Epr3 promoter wt) (dsDNA)
DNA 1: ATACCCTGCCCTTACAGACAAGTATAAGAGGCACAAAA
DNA 2: TTTTGTGCCTCTTATACTTGTCTGTAAGGGCAGGGTAT
binding result: binds
